# Source: the DeepSol protein solubility set
# Experiment: soluble on expression in E. coli; label from the status in PepcDB or PDB records
row,Sequence,soluble on expression in E. coli
1,MSWWQDMDQRGGVSSPSGALASAEPAPASVTLAELLHLVQKGQEVPGLEKRHITATHGEPTASLLPRRPKPWEDAGSAASPCTIALDTRTQPPTIEERSRGSPAAQLDGGPRVS,soluble
2,MSIEKLKAALPEYAKDIKLNLSSITRSSVLDQEQLWGTLLASAAATRNPQVLADIGAEATDHLSAAARHAALGAAAIMGMNNVFYRGRGFLEGRYDDLRPGLRMNIIANPGIPKANFELWSFAVSAINGCSQCLVAHEHTLRTVGVDREAIFEALKAAAIVSGVAQALATIEALSPS,soluble
3,MAKGQNAPIRRRTLTRDKVVDAAIEIIDEHGWEQLSMTSLSARLNVVTASLYNHVRNLDDIRGAVQVRTMTELGAHLREIAMGRTGPDGLRALVDAHRAWATQHPHRYQTLTTSPVDRDAFISAALDANTALRTMLASCGLPPEDTLDAAVSIFAAMHGFVMLVNTDFLGDELDLDSIYESVLRGALSSVGWPERTHTPS,not soluble
4,QGMQTKKAFLYVFNTMSDWEYGYLIAELNSGRYFKKDLAPLKVITVGANKEMITTMGGLRIKPDISLDECTLESKDLLILPGGTTWSEEIHQPILERIGQALKIGTIVAAICGATDALANMGYLDTRKHTSNNLEYTKMVCPNYKGEKFYELGPAVSDANLVTASGIAPLEFAMEVLKKIDVFTLDALHSWYNLNKTHKPEYFFQLMNSINK,soluble
5,MGSDKIHHHHHHALPDPVKPKAPKAVNPFHLGMAGYTFVNFDLDTTLKTLERLDIHYLCIKDFHLPLNSTDEQIRAFHDKCAAHKVTGYAVGPIYMKSEEEIDRAFDYAKRVGVKLIVGVPNYELLPYVDKKVKEYDFHYAIHLHGPDIKTYPDATDVWVHTKDLDPRIGMCLDVGHDLRNGCDPVADLKKYHTRVFDMHIKDVTDSSKAGVGIEIGRGKIDFPALIRMMREVNYTGMCSLEYEKDMKDPFLGIAESIGYFKAVSDLT,not soluble
6,MIINNVKLVLENEVVNGSLEMQDGEIRAFAESQSRLPEAMDGEGGWLLPGLIELHTDNLDKFFTPRPKVDWPAHSAMSSHDALMVASGITTVLDAVAIGDVRDGGDRLENLEKMINAIEETQKRGVNRAEHRLHLRCELPHNTTLPLFEKLVQREPVTLVSLMDHSPGQRQFANREKYREYYQGKYSLTDAQMQQYEEEQLALAARWSQPNRESIAAMCRARQIALASHDDATHAHVAESHQLGSVIAEFPTTFEAAEASRKHGMNVLMGAPNIVRGGSHSGNVAASELAQLGLLDILSSDYYPASLLDAAFRVADDQSNRFTLPQAVKLVTKNPAQALNLQDRGVIGEGKRADLVLAHRKGNHIHIDHVWRQGKRVF,not soluble
7,MSEAIGLIETVGLVAAIEAADAAVKAANVKLIGYELARGSGLTTVKIKGDVGAVKAAVEAGKAAALRVGKVYAVHIIPRPDKQVGFIVGEEKNLTLLMPVIEKEEKEKNDSEPKIKVTEGETIEKREIEQKFEKEDKSEAKEETGEVEEEDDKEGMAYTCNLCKDPGCPRKKGEPRTLCIHYNELKMR,not soluble
8,MGSSHHHHHHSSGLVPRGSHMHMQVTLQVTPPCTQERHYEHLGRCCSRCEPGKYLSSKCTPTSDSVCLPCGPDEYLDTWNEEDKCLLHKVCDAGKALVAVDPGNHTAPRRCACTAGYHWNSDCECCRRNTECAPGFGAQHPLQLNKDTVCTPCLLGFFSDVFSSTDKCKPWTNCTLLGKLEAHQGTTESDVVCSSSMTLRRPPKEAQALEHHHHHH,soluble
9,MKPKVLLAGGTGYIGKYLSEVIENDAELFTISKYPDNKKTDDVEMTWIQCDIFHYEQVVAAMNQIDIAVFFIDPTKNSAKITQSSARDLTLIAADNFGRAAAINQVKKVIYIPGSRYDNETIERLGAYGTPVETTNLVFKRSLVNVELQVSKYDDVRSTMKVVLPKGWTLKNVVNHFIAWMGYTKGTFVKTEKSHDQFKIYIKNKVRPLAVFKIEETADGIITLILLSGSLVKKYTVNQGKLEFRLIKESAVVYIHLYDYIPRLFWPIYYFIQAPMQKMMIHGFEVDCRIKDFQSRLKSGENMKYTK,not soluble
10,GMYAVPILNVYDFEVKKDKETSYKSATEDYVNKTMGVEQGVLGLFAATDERDKTTSYIVEIYNDYLAFSNHTKNQASKDFKAVIPQIAEGNLNSAEIDVQIAKDKKIEQNDNTFAVYTVIDVKPENDKEFAEIIKNIVETTFNEEGTLLVYLGTDRRNFNKWCLFEVYKDIDSYLNHRSAKYFKDYITQTKDMIAGKKRAELQVLKIENKGGLDYKKLY,soluble
11,MGSDKIHHHHHHMNFFEIVNAHLSELSPNEQKLFDYVVTNMGQIKNQSIREVASATFVSTATFLRFVKKIGFSGFSEFTTVIKFTLINRQEAERTTPFVVQQKDYREEYLKNIGESIRVIQPDHLRQVVDRLAQHPDVFFFAKGVSKHAVAYIDYLYTMAGFKTHFPRDHDYRKQALTQVDNDALVFILTYKGSDGEMLDMMSQLVGRPVRPLLVSITEPDNNTIQNLSDINFYIFTDGVTVNGTDISSRISTISVMELILYQYVEDYGGRDFHFQRQLES,not soluble
12,MWEPSKRLKPVPILPELKEIGEQLQAQREQAMIEWAQTGYVKKLKARLVGRIIHGLGAGHIRETSLTIHPVYGLPYIPASSVKGLVRHWFIEAYCEGEEKQLNEHEIGREIFGTQGNKGIVQFHDIFLIESLQLTGDVLAVHMKEYYEGNRAATDDQKPVPVSFWTVMATEVDIYLTANRSAPQNDEETVRLLEAAALWTQQALTEWGIGSKTSSGYGRFAEVYDVTEMEFLPIVQKEQVRLEQQKKEREMLEQ,not soluble
13,MGSDKIHHHHHHVDLSVMNRKRSESFNEVAEIYDAARPSYPSQLIEDVIEMANLTDSASILDIGTGTGKGTVPFAEKGYAIYCLEPGERLIAIASQNMRLYPKVIFETVTLEDWNLRPSAFDLAISAQAFHWVNREKGYPKVAQALKEKGYIAFFWNFSILPDTSIFQALKETFQKYVPTISNAKPSSVESLIKKRENWILNSFYFKNLVVKKYPWSINYDAEGYLGLLKTQTAYQKFTGTEKQDFSDAIIQILNAHGGYVTKPYLSVLFFAQKI,not soluble
14,MGSDKIHHHHHHMAYFMLLMTTPIQATIQQSMALAKAHYENFPVASVLLPKDLRAPVGLVYAFARQADDFADEGELSPEERLALLDGFRSQLDQIKHGATPDTPLFQALQAMIQERDLPLEPFYDLLSAFSQDVVKARYANFGEVIDYCRRSANPVGRLMLHLYKQATPRNVALSDAICTSLQLINFLQDVDVDYRKNRIYLPLDELQKYNITEQQIAGQHSGGTWSLFMEFQVNRTRKLLQSGAPLGLALPGRIGLEMRMIIAGGERILKKLHHVRGDVFNQRPTLKPTDWAYMLYRAVRKK,not soluble
15,AMMIGIIGAMEEEVTILKNKLTQLSEISVAHVKFYTGILKDREVVITQSGIGKVNAAISTTLLINKFKPDVIINTGSAGALDESLNVGDVLISDDVKYHDADATAFGYEYGQIPQMPVAFQSSKPLIEKVSQVVQQQQLTAKVGLIVSGDSFIGSVEQRQKIKKAFPNAMAVEMEATAIAQTCYQFNVPFVVVRAVSDLANGEAEMSFEAFLEKAAVSSSQTVEALVSQL,soluble
16,CVIFPVEIDVSQTIIRDCQVDKQTRELVYINKIMNTQLTKPVLMMFNISGPIRSVTRKNNNLRDRIKSKVDEQFDQLERDYSDQMDGFHDSIKYFKDEHYSVSCQNGSVLKSKFAKILKSHDYTDKKSIEAYEKYCLPKLVDERNDYYVAVCVLKPGFENGSNQVLSFEYNPIGNKVIVPFAHEINDTGLYEYDVVAYVDSVQFDGEQFEEFVQSLILPSSFKNSEKVLYYNEASKNKSMIYKALEFTTESSWGKSEKYNWKIFCNGFIYDKKSKVLYVKLHNVTSALNKNVILNTIKA,soluble
17,MHFPISMAVPARFTGPLPESCDVVVIGAGVIGVMTGWYLAERGFRVTVCEKGRVAGEQSSRNWGWIRQQGRDPDELPIMVESLRLWQGLAQSLGNPFGFRQTGVLYLANREEQLSQYEGWMIHAAAQGLDTRLLGRRELAERLPGAADLWQGGLFTASDARAEPWLAVPALAAGAAERGVTILEDCAVRALDLEGGRVAGVTTERGRIRAPEVVLAGGAWSSLFARAHGVNLPQLSVLSSVAQTEPLPEILPGAAADDAFAFRRREDGGYTIAGGSEHDFFIGPDAFRHALKYRKAVKKDFLSTHYRWLAPRDYPDGWNTPRTWSKGAPTPFEAMRVLNPAPNLATLSRAAAAFGRAFPGVGRPKIRATWAGMIDTMPDVVPVIDRAPSVPGLTIATGMSGHGFGIGPGVGRVVADLVAGRPVGHDLTRFRLSRFTDGSEITLGPSL,not soluble
18,MAHHHHHHMQTHISRAVEEGRHTKEAAAYFESIMNDKPEFRLFMREAQRLIGDQDPRGLTRYQQTHYSEKLSRYMSGVASERLMRAHTEDENTRRHTHDGSPTGENYWFEAGQILASPTVPSFVKDEVLREMRGGRKEDSPAFEEPKAVAEMEADDEGFAEHLRRQRKRLLSPDDHLN,soluble
19,TKDWKWKLSFNATTYKNKITSLPAEEMWSGNKKWVKGGSLYDFYLVEWAGVNPENGNPTWYRYNTNGEKITTEDYSSTTPDDKVKCGNSLPDWTGGLQSDLSFKDFTLSFLFSYSIGGKIYNGDKVSLMSQGPTGTGWSVDMLDRWTPENPYTDVPRLTTSPKSSWTNSSNRFLVDRSYLRLKNITFSYNLPKSLLNTLTLKDASIFFQAENMLTLAKQQGLDPEQTFGGSTYYRYPAMKTISFGINVKL,not soluble
20,MGSDKIHHHHHHMSNTVRAISPDITLFNKTLTFQEISQNTREAVIYIHGGAWNDPENTPNDFNQLANTIKSMDTESTVCQYSIEYRLSPEITNPRNLYDAVSNITRLVKEKGLTNINMVGHSVGATFIWQILAALKDPQEKMSEAQLQMLGLLQIVKRVFLLDGIYSLKELLVEYPEYDCFTRLAFPDGIQMYEEEPSRVMPYVKKALSRFSIDMHLVHSYSDELLTLRQTNCLISCLQDYQLSFKLYLDDLGLHNDVYKNGKVAKYIFDNIC,not soluble
21,MSLEKVDFIKEDLIFSLLEKGKITDRNEIREILAKARECKGISLGEVAKLLYLEDEELLEELYDVAKYIKNKIYGKRVVLFAPLYTSNECTNNCLYCGFRHDNKELHRKTLSLEEIVEEAKAIERQGHKRLLLICGEDPRKTNVKHFTDAMEAIYKSTDIRRINVEAAPMTVEDYRELKKAGIGTYVIFQETYHRETYRIMHPVGKKANYDWRITAIDRAFEGGIDDVGVGALFGLYDYRFEVLGLLMHCMHFEEKYGVGPHTISVPRLRPALGAPLKEIPYKVTDKDFKKIVAIFRIAVPYTGIILSTRERAEFRDELLSVGVSQISAGSKTNPGGYQEDDDHADQFEISDNRSLPKVMETICQQGYIPSFCTACYRRCRTGEHFMEYAKAGDIHEFCQPNAILTFKENLMDYADEPLRKMGEEVILKALEEIEDEKMKTLTIAKLEEIEKGKRDIYFEGHHHHHH,soluble
22,GSFTGQGDFHLLDHRGRARCKADFRGQWVLMYFGFTHCPDICPDELEKLVQVVRQLEAEPGLPPVQPVFITVDPERDDVEAMARYVQDFHPRLLGLTGSTKQVAQASHSYRVYYNAGPKDEDQDYIVDHSIAIYLLNPDGLFTDYYGRSRSAEQISDSVRRHMAAFRSVLS,soluble
23,MGSDKIHHHHHHMELGIIYSGEFGKRFVSNLAYPYLCPTFGACGINGCDYCKRYDFSSSIVYAKELAEPQEIGLYVEEPESYLEPFECDIAVAINVHPDILVSLPEIGEFKALIVPACNQNWCLPGLRKQLAEKCGELGIEFASPKPFCSLTGNSGWISRFIDEFKIGRPEFRVERGGDAIKKVEVIKSDPCGSAYFVAKRMTGYIIESKEDFWKEIHQHQCAYPCMASMDRDVELKEAPFHLAGYIMVYQFSTAAGVEAEEFVPEHFREIVCRAR,not soluble
